Key:
[1] = biological target: T1, rVAR2 recombinant protein with a Strep-tag (prokaryotically expressed and purified) (Plasmodium falciparum); assay: Western blot, 5H4 as primary antibody
T1 construct: Expressed in E. coli, about 74 kDa; also called prokaryotically expressed and purified rVAR2 protein; strep-tagged rVAR2 recombinant protein
T1 chain: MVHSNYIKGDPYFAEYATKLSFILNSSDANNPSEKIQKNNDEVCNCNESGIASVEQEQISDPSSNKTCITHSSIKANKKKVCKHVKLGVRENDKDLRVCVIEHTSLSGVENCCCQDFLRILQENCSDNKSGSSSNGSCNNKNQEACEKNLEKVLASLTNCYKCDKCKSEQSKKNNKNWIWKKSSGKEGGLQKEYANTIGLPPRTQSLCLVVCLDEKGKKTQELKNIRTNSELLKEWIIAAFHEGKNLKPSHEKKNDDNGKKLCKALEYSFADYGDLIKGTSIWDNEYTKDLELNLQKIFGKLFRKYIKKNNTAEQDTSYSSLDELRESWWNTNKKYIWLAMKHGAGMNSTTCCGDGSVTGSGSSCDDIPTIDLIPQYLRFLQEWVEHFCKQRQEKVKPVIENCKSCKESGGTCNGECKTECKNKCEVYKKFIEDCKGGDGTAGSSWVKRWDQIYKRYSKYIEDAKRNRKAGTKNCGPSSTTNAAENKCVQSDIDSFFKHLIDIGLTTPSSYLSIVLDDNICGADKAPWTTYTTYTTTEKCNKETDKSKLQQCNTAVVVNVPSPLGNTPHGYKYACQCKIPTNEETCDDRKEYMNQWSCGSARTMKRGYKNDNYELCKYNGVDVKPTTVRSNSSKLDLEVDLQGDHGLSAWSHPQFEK

[2] = biological target: T2, rVAR2 recombinant protein with the 3xFLAG-tag (eukaryotically expressed and purified) (Plasmodium falciparum, Possible post-translational modification (runs at about 115 kDa against 76 kDa predicted); not carried by the letters.); assay: Western blot, 5H4 as primary antibody
T2 construct: Expressed in HEK293 or HEK293T cells; Predicted about 76 kDa, runs at about 115 kDa (possible post-translational modification); also called eukaryotically expressed and purified rVAR2 protein
T2 chain: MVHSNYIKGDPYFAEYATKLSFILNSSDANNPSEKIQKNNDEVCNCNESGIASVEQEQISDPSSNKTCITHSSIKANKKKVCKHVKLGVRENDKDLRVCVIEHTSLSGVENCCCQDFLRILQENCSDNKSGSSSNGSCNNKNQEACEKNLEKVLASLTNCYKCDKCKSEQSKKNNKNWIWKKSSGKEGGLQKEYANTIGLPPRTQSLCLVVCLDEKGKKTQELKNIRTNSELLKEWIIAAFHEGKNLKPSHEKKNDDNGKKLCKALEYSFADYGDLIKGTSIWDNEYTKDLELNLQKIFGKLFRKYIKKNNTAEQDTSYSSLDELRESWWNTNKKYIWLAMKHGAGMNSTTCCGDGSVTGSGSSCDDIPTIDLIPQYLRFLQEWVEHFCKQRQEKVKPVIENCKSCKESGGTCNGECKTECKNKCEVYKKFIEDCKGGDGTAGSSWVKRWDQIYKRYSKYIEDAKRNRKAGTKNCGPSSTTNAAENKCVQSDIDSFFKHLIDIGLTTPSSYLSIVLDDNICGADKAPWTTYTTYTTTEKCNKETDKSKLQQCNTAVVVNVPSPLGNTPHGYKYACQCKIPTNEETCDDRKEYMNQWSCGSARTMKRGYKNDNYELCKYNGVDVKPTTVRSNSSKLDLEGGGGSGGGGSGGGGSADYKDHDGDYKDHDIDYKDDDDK

[3] = biological target: T3, ID1 polypeptide with Strep-tag (Plasmodium falciparum); assay: antigen-specific ELISA, OD450
T3 construct: Expressed in E. coli, predicted 17 kDa; also called ID1 antigen peptide
T3 chain: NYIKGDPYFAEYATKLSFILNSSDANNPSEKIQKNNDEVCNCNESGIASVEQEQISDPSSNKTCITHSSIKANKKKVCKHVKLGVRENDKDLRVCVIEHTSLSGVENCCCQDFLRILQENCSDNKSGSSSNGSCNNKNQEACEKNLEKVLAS

[4] = biological target: T4, DBL2X polypeptide with Strep-tag (Plasmodium falciparum); assay: antigen-specific ELISA, OD450
T4 construct: Expressed in E. coli, predicted 40 kDa; also called DBL2X antigen peptide
T4 chain: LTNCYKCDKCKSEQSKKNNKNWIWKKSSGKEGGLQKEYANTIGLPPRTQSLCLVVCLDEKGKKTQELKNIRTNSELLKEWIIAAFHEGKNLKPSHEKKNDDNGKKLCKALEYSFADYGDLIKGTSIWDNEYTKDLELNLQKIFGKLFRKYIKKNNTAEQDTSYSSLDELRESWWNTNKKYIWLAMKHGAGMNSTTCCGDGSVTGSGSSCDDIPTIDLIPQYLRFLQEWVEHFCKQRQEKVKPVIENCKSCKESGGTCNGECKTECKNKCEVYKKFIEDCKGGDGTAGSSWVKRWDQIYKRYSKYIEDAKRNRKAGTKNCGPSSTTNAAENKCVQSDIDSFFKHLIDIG

[5] = biological target: T5, ID2a polypeptide with Strep-tag (Plasmodium falciparum); assay: antigen-specific ELISA, antigen coated at 1 µg/ml
T5 construct: Expressed in E. coli, predicted about 15 kDa; also called ID2a antigen peptide
T5 chain: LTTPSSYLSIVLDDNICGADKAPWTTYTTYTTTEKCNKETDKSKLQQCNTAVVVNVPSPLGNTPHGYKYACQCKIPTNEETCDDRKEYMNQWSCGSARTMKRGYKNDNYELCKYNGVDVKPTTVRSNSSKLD

B1: anti-rVAR2 monoclonal antibody 5H4 (antibody, V domains shown)
VH: EVKLVESGGGLVKPGGSLKLSCAASGFTFSNYAMSWVRQSPERRLEWVAEISITGRYTYYPDTVTGRFTISRDNAKNTLYLEMSSLRSEDTAMYYCTREGYDYAPSWFAYWGQGTLVTVSA
VL: DVVMTQTPLSLPVSLGDQASISCRSGQTLVHRNGITYLEWYLQKPGQSPKLLIYKVSNRFSGVPDRFSGSGSGTDFTLKISRVEAEDLGIYYCFQGSHVPRTFGGGTKLEIK
notes: Murine IgG from a mouse B cell hybridoma, purified from hybridoma supernatant; isotype and constant regions are not; also called murine monoclonal antibody 5H4
Q: Does B1 bind [1]?
A: Result: binds

Q: Does B1 bind [2]?
A: Result: binds

Q: Does B1 bind [3]?
A: Result: no binding (tested: antigen coated at 1 µg/ml)

Q: Does B1 bind [4]?
A: Result: no binding (tested: antigen coated at 1 µg/ml)

Q: Does B1 bind [5]?
A: Result: binds

From US20210221880A1 (CAS LAMVAC GUANGZHOU BIOMEDICAL TECHNOLOGY, published 2021)
